The RNAGym collection of RNA variant scans (doi:10.1073/pnas.2313332121)
Variants at the floor of the assay were thinned out.

B1: TPR 5TU (parent)
chain: GGAUCUUCUCGAUCUAACAAAAAAGACAAAUCUGCCACAAAGCUUGAGAGCAUCUUCGGAUGCAGAGGCGGCAGCCUUCGGUGGCGCGAUAGCGCCAACGUUCUCAACUAUGACACGCAAAACGCGUGCUCCGUUGAAUGGAGUUUAUCAUG

Variants of: B1
Test: polymerase ribozyme fitness, log enrichment relative to wild type (log ratio); higher = more active; in vitro selection for triplet polymerase activity
Method in brief: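 A heterodimeric triplet polymerase ribozyme had each of its subunits mutagenized by PCR into a library, which was transcribed. One round of in vitro selection, done in triplicate, annealed each library with a biotinylated primer, its partner subunit and triplets, then incubated it frozen at −7 °C before gel excision of extended constructs, streptavidin-bead capture and RT-PCR. Fitness is the logarithm of genotype enrichment relative to wild-type enrichment, based on Illumina sequencing of inputs and outputs and inverse-variance-weighted replicate averages. A base-2 logarithm is used, and genotypes were kept only with ≥10 input reads and ≥1 read per output.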

Polymerase ribozyme fitness (log ratio), -2.88:
U45G C93A C116U

Polymerase ribozyme fitness (log ratio), -0.78:
A41U G80A

Polymerase ribozyme fitness (log ratio), ≤ -4.2:
U44A U90G C93U G143A U151G
C43A G50A A106G
G42A U53A U77G A91U A115G U135G
C43U C63U A73C U78A G84U U90G C93U A119U A142U
U44A A52G C85A C118U
U44G A60U A115C
U44A G117A U135G
G46A G50C A52C C69A
A41G U56A C79U U82G C85U A122G C129A G136U
G42C C43U C54U A98G A120G
U45A G67A C79A A91U A121G
U45A U56G A66C G67C G71U C85G G88U A89G C99U A110G C132G
C43A U61A U127C C132U U145G
G42A A64G U102G
U44G G70C G83A C116A G152A
U44A U56A U61A A97U
G46C A64G A91C
C43A G80C G94U
G42C U53A G83C G126U
G42A G71A A91U A97U G100C
U45A U77G G86U U104A C123A
C43A U44A A91U G141U A150C
G42A G48U G58U C75G G83A U104G
U45A A47C C54A C57A U90C G140C
U44G A52G U53A C75A
C43A C69G G92C
U44A G50C
G46C U61A C63U U82A A122G
G46C G50C G59U C118U G126C
G42A A47C U55A C85U
C43G A49C C51U G62A G88A A91G C125U A137G
U45A G46C C85G G88C C93U A115C A150G
U44A C54U U82G C87A C123U
U45G A52U U55A A73U C85U G117A C149A
G42U A64C C79U G88A A106G A107C A147U
G42C G92A
U44A U144G U151G
G42A G48A A97G A138U
C43U C93G U109G
G46A C85U A89G C96A A106C U145C U146G
G42C A52C A64G G80A C96A C108U A110G
U44G A73U C85A C99U A142C
C43U C85U G88U C96A C123G G124C C129U G133C U139C
A41G U44G C75A G92A U102A U148C
C43G G86A
C43U G83U A120G
U44A A49C C93U C123G U130G
U45A G48U G50A G59C G68U C96U C131A A137C G152A
G42C C54A A64C U77A G83C G126A U145A
A41U G84C C103G
C43U C132U
G46A C96U U134G A138G
U45A G50A U55G C87G G94C
G46A U56A U82C C93A A107G C125U G136U
U45G C75G C87A A120C G141C
U45A G46C A98U
A41U G71A G83C G84U U145C A147U
U44G A49C C93U C125U A150U
A41C U127G G136U G141U
G42C U101G G136U
G46C A49U U56A G86A C87A C103G A147U
A41G U77G C85G C96U G124C
A41G C76U G84U C85A A97U G100A G140U
C43U A89U G94U C105G C132A U151C
U45A A49G G83A C85U C99G U104C
U44A C76A A91G
U44G A73G A91G A107C
A41U C51G G58U U61A G68A C96A A97C U102C
G42C A66C
C43G U55A C96A A98C A121U
U44A G62A G84A U134A
A41U G65U G141C
G42A A47C C85G C96G C116A A147U
G46C U90A
G42C G86U U109G G141U
C43U C72U G92U
A41G C85A U130G G143U A147G
G42C A89G G92A G126U G133A
U44G G70C G140U
G46C C75G G88A C114U
G46A A52G G86U A91G A98U C114G
G46C U53A G92U U111G U134C
U44G A49U G84A U90G C131U U135G G136A
C43G A60C G62A C96U U102G
C43G U44A G58A G88U C95U U135G
U45C G46A U61G G62C C76A
G42A G50A A66U G88A C96G U139C
G42C C43A U55G C57U A66C A137C G141C
U44A G92A C93A G141C
C43U U53G
U45A G62C A107U
G42U C85A C99U C108G A110G
U44A C79U A89G U104A A107G
U44A U134A
U44A G81A A137G
U45A A64U G67C G74A G83A A120G
C43G A49C C76A G84A C105G
G46A C85A C87U C99A
G42A G50A C57U G67C C79U G83U C93U
U44A G46C C87U
U44A G67A U77G U78G C87A C95G
G46C U77G A142C
U44G C57G A91U A107G C125U U130C U135G
U44C G86U C103G G140A U148A
G42A G94U
A41G C57A G59A G68U
U45A G83C C105U C131G
G42C A49C

Polymerase ribozyme fitness (log ratio), -2.4:
U45G C114U A119U

Polymerase ribozyme fitness (log ratio), -0.836:
A41U G117C

Polymerase ribozyme fitness (log ratio), -4.18:
U45A A52G C118A

Polymerase ribozyme fitness (log ratio), -1.73:
G46A U82C C95U C125G
A41U C105G

Polymerase ribozyme fitness (log ratio), -4.01:
U45A C114U

Polymerase ribozyme fitness (log ratio), -0.922:
A41C G83U

Polymerase ribozyme fitness (log ratio), -0.687:
G46A A52C U61G

Polymerase ribozyme fitness (log ratio), -1.22:
A41C U53A G92U

Polymerase ribozyme fitness (log ratio), -3.71:
U44G G136A

Polymerase ribozyme fitness (log ratio), -2.74:
A41G U45A C54G G92U

Polymerase ribozyme fitness (log ratio), -4.12:
U44G G141A

Polymerase ribozyme fitness (log ratio), -3.32:
A41C U55A C93A

Polymerase ribozyme fitness (log ratio), -3.91:
G46A A52C U139G

Polymerase ribozyme fitness (log ratio), -3.81:
U45A C76U C125G
G46A G143C

Polymerase ribozyme fitness (log ratio), -2.95:
U45A U55A

Polymerase ribozyme fitness (log ratio), -4.08:
G42U A60G U139C U148A

Polymerase ribozyme fitness (log ratio), -2.55:
A41C C132A

Polymerase ribozyme fitness (log ratio), -0.344:
A41C U101G

Polymerase ribozyme fitness (log ratio), -3.55:
A41C U135C

Polymerase ribozyme fitness (log ratio), -3.51:
U45A G83C

Polymerase ribozyme fitness (log ratio), -2.47:
U45A A60G

Polymerase ribozyme fitness (log ratio), 0.0159:
G46A C96U

Polymerase ribozyme fitness (log ratio), -3.15:
U45A C93U

Polymerase ribozyme fitness (log ratio), -2.23:
U45G G94A A137G

Polymerase ribozyme fitness (log ratio), -3.95:
U45A C85G

Polymerase ribozyme fitness (log ratio), -0.145:
A41G G81C U82C

Polymerase ribozyme fitness (log ratio), -0.601:
A41C G84A

Polymerase ribozyme fitness (log ratio), -2.86:
G46C C93U C96U

Polymerase ribozyme fitness (log ratio), -0.141:
A41U U145A

Polymerase ribozyme fitness (log ratio), 0.374:
U45G C57A

Polymerase ribozyme fitness (log ratio), -3.85:
G42C A60G A113U G140U

Polymerase ribozyme fitness (log ratio), -4.16:
U45A C85U C118G A138U
A41U C114A

Polymerase ribozyme fitness (log ratio), -1.08:
U45C G84A

Polymerase ribozyme fitness (log ratio), -2.58:
G46C C149U

Polymerase ribozyme fitness (log ratio), -1.63:
U45G U53A C85U

Polymerase ribozyme fitness (log ratio), -3.69:
A41U G62C G136U

Polymerase ribozyme fitness (log ratio), -2.16:
A41U C54U C96A

Polymerase ribozyme fitness (log ratio), 0.425:
A41G G94C

Polymerase ribozyme fitness (log ratio), -3.56:
U45A A52G C116G
U44C C54U

Polymerase ribozyme fitness (log ratio), -1.48:
A41U C95U A98C

Polymerase ribozyme fitness (log ratio), -2.75:
A41U C69U C87U

Polymerase ribozyme fitness (log ratio), -2.81:
U45A G94A

Polymerase ribozyme fitness (log ratio), -2.6:
A41G C75U C93G
A41C G59A G86U

Polymerase ribozyme fitness (log ratio), -0.619:
A41C U144C A147U

Polymerase ribozyme fitness (log ratio), -4.19:
U44A C116G

Polymerase ribozyme fitness (log ratio), -3.97:
G42A G86A

Polymerase ribozyme fitness (log ratio), -0.911:
G46A G83A

Polymerase ribozyme fitness (log ratio), 0.164:
A41U U144G

Polymerase ribozyme fitness (log ratio), 0.00932:
U45G C116U

Polymerase ribozyme fitness (log ratio), -3.82:
G42A A52C

Polymerase ribozyme fitness (log ratio), -1.07:
A41C U102A

Polymerase ribozyme fitness (log ratio), -2.12:
U45A C57A C95U
